B1: murine monoclonal antibody 16G8 (antibody, V domains shown)
VH: EVQLQESGPGLVKPGASVKISCKASGYSFTGYYMNWVKQSPEKSLEWIGEINPSTGGTTYNQKFKAKATLTVDKSSSTAYMQLKSLTSEDSAVYYCVRYSHYYGSGSWYFDVWGTGTTVTVSS
VL: DIQMTQSPASLSASVGETVTITCRASENIYSNLAWYQQKQGKSPQLLVNAATNLADGVPSRFSGSGSGTQFSLKINSLQPEDFGSYYCQHFYVTPYMFGSGTKLEIKR
B2: murine monoclonal antibody 17C6 (antibody, V domains shown)
VH: EVQLQESGPGLVQPSQSLSITCTVSGFSLTSYGVHWVRQSPGKGLEWLGVIWSGGSTDYNAAFISRLSISKDNSKSQVFFKMNSLQADDTAIYYCARNWFDYDNYYSMDYWGQGTSVTVSS
VL: DIQMTQTTSSLSASLGDRVTISCRASQDISNYLNWYQQKPDGTVKLLIYYTSRLHSGVPSRFSGSGSGTDFSLTISNQEPEDIATYYCQQYSNLPWTFGGGTKLEIKR
B3: murine monoclonal antibody 8C4 (antibody, V domains shown)
VH: EVQLQESGPELKKPGETVKISCKASGYTFTTYGMSWVKQAPGKGLKWMGRINTYSGVPTYADEFKGRFAFSLENSASTAYLQINNLKNEDTATYFCARGDGGHWFANWGQGTLVTVSA
VL: DIQMTQSPSSLSASLGGKVTITCKASQDINKNIAWYQHKPGKGPRLLIWYKSALQPGIPSRFSGSGSGRDYSFSISNLEPEDIATYSCLQYDNLPPTFGGGTKLEIKR
B4: murine monoclonal antibody 2D8 (antibody, V domains shown)
VH: EVQLQESGGELVRPGTSVKISCKASGYTFTNFWLGWIKERPGHGLEWIGDIYPGGHYTNYNENFKGKATLTADTSSNTAYMQVSSLTSEDSAVYFCFTQYYDMDYWGQGTSVTVSS
VL: not shown
B5: murine monoclonal antibody 21B2 (antibody, V domains shown)
VH: EVQLQESGAELVRPGASVTLSCKTSGYTFTDYEMHWVKQTPVHGLEWIGAIDPETGGTAYNQKFKGKATLTADKSSSTAYMELSRLTSEDSAVYYCTGNYATDYWGQGTSVTVSS
VL: DIVMSQSPSSLAVSAGEKVTMSCKSSQSLFNSRSRKNYLAWYQLKPGQSPKLLIYWASTRESGVPDRFTGSGSGTDFTLTISSVQAEDLAVYYCKQSNYLWTFGGGTKLEIKR

Each binder was assayed against SUDV GPddmuc (Sudan virus (SUDV)), Q66814. Conditions: remark: other sources report otherwise.
B1 was tested, and the EC50 was 0.22 µg/mL.
Work on B2 yielded an EC50 of 0.03 µg/mL.
B3 was tested, and the EC50 was 0.06 µg/mL.
In the case of B4, the EC50 is reported as greater than 10 µg/mL.

The binders below were run against EBOV GPddmuc (Ebola virus (EBOV)), Q05320. Conditions: remark: other sources report otherwise.
B1 was tested, and the EC50 was 1.23 µg/mL.
For B2, the EC50 was 0.03 µg/mL.
In the case of B3, the EC50 is reported as 0.21 µg/mL.
With B4 the EC50 was 26.2 µg/mL.
Binder B5 has an EC50 greater than 10 µg/mL.

The binders below were run against MARV GPddmuc (Marburg virus (MARV)), P35253. Conditions: remark: other sources report otherwise.
In the case of B4, the EC50 is reported as 0.0573 µg/mL.
Binder B5 has an EC50 of 0.0307 µg/mL.
